From US20240425593A1 (SICHUAN KELUN BIOTECH BIOPHARMACEUTICAL, published 2024)

T1: monkey PD-1-hFc (monkey)
T1 construct: Extracellular domain of monkey PD-1 fused to an hFc tag, made in house; not shown: The hFc tag and any linker
T1 chain: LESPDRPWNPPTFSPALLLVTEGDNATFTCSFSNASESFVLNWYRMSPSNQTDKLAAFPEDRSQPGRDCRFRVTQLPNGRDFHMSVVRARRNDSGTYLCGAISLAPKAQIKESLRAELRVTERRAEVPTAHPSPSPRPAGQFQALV

B1: murine antibody 91D5 (antibody, V domains shown)
VH: EVQLQQSGPELVKPGASVKISCRASGYTFTDYYMNWVKESHGKSLEWIGEINPKYGDTTYNQKFKDKATLTVDKSSSTASVELRSLTSEDSAVYYCAKGIRLFDSWGQGTTVTVSS
VL: DIQLTQSPASLSASVGETVTITCRPSGNVHNYFAWYQQKQGKSPQLLVYNAKTLAEGVPSRFSGSGSGTQYSLKINSLQPEDFGTYYCHHYYTAPFTFGSGTKLEIK
notes: Murine antibody from a hybridoma
B2: murine antibody 29C6 (antibody, V domains shown)
VH: QVQLEESGPELVKPGASVKISCKTSGYTFTEYTIYWVKQSHGKSLEWIGGINPKNGATLYNQKFKVKATLTVDKSSSTAYMELRSLTSEDSAVYYCVRDYHGNSHDSMDYWGQGTSVTVSS
VL: QIVLTQSPAIMSASPGEKVTITCSASSSVSYMHWFRQKPGTSPKLWIYYTSNLASGVPAHFSGSGSGTSYSLTISRMEAEDAATYYCQQRSDYPPTFGGGTKLEIK
notes: Murine antibody from a hybridoma; also called murine PD-1 antibody 29C6
B3: murine antibody 42G1 (antibody, V domains shown)
VH: QVQLKESGAELAKPGASVKMSCEASGYALTSYWMHWVKQGPGQGLEWIGYIHPSTGYTEYNQIFEDKATLSADKSSNTAYMQLTSLTSDDSAVYYCARGAGPYYFDYWGQGTTLTVSS
VL: DIQLTQSPSSLAVSAGEKVIMSCKSSQSLLNSGTRKNYLAWYQQKPGQSPKLLIFWASTRESGVPDRFTGSGSGTDFTLTISSFQAEDLAVYYCKQSYDLITFGPGTKLEIK
notes: Murine antibody from a hybridoma; also called murine PD-1 antibody 42G1

Columns and labels:
[1] = target: T2, human PD-1-hFc (human, UniProt Q15116 25-170); test: competitive ELISA, coated human PD-1-hFc, competitor biotinylated PD-L1-mFc
T2 construct: extracellular domain; Extracellular domain of human PD-1 fused to an hFc tag, made in house; not shown: hFc tag
Procedure: The specific experimental steps were as follows: human PD-1-hFc antigens were diluted to 1 μg/mL with CBS solution, then coated on a 96-well ELISA plate (purchased from Guangzhou Jiete Bio) at 4° C. overnight. […] After washing, streptavidin labeled with horseradish peroxidase diluted in phosphate buffer (PBS) containing 2% BSA in a ratio of 1:15000 was added, followed by incubating at room temperature for 1 hour. After washing, the TMB chromogen solution was used for developing, and the absorbance value was read using a microplate reader at 450 nm, and the data were imported into Graphprism to calculate the IC₅₀ value.

[2] = target: T2, human PD-1-hFc; test: ELISA, coated human PD-1-hFc
Procedure: (§1) In order to verify the binding affinity of murine anti-PD-1 antibody to human PD-1-hFc and monkey PD-1-hFc, ELISA was used. The specific experimental steps are as follows: human PD-1-hFc and monkey PD-1-hFc were diluted to 1 μg/mL with CBS solution, and then coated on a 96-well ELISA plate (purchased from Guangzhou Jiete Bio) at 4° C. overnight. […] After washing, a goat anti-mouse secondary antibody (FC) labeled with horseradish peroxidase diluted in phosphate buffer (PBS) containing 2% BSA in a ratio of 1:15000 was added, followed by incubating at 37° C. for 1 hour. After washing, the TMB chromogen solution was used for developing, and the absorbance value was read using a microplate reader at 450 nm. The data were imported into Graphprism to calculate the EC₅₀ value.

[3] = target: T1, monkey PD-1-hFc; test: ELISA, coated monkey PD-1-hFc
Procedure: as §1

[4] = target: T3, full-length human PD-1 on CHO-hPD-1 cells (human, UniProt Q15116 25-288); test: flow cytometry on CHO-hPD-1 cells, FITC anti-mouse IgG secondary antibody
T3 construct: whole, on cells; also called PD-1 on the cell membrane surface of CHO-hPD-1
Text: (§2) In order to verify the binding of anti-human PD-1 murine antibody to PD-1 on the cell membrane surface, FACS technology was used to detect the affinity between murine antibodies and CHO-hPD-1 cells.

[5] = target: T3, full-length human PD-1 on CHO-hPD-1 …; test: flow cytometry on CHO-hPD-1 cells
Text: as §2

T2 sequence (Q15116 25-170): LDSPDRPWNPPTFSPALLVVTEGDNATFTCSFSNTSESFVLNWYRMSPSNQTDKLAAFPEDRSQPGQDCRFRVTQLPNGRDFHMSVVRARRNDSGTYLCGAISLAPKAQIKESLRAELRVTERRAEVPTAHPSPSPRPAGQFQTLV
T3 sequence (Q15116 25-288): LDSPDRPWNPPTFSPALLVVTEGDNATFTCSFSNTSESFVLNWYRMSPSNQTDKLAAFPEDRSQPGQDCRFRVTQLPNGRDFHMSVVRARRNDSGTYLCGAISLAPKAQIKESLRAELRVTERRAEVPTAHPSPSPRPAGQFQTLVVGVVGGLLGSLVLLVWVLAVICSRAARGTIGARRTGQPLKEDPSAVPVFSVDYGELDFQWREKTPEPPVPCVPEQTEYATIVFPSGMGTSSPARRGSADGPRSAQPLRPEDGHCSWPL

Binder	IC50 [1] [nM]	EC50 [2] [nM]	EC50 [3] [nM]	EC50 (read off the curve) [4] [nM]	EC50 [5] [nM]
B1	4.25	0.044	0.0685	–	–
B2	2.93	0.0355	0.0344	~3	3.12
B3	4.5	0.0513	0.0595	~7	6.62
